Molecular target: T1, [^35S]-tastin (UniProt Q12815 1-778, limits assumed, [^35S]-methionine labeled)
T1 construct: also called in vitro translated [^35S]-labeled tastin
T1 sequence (looked up): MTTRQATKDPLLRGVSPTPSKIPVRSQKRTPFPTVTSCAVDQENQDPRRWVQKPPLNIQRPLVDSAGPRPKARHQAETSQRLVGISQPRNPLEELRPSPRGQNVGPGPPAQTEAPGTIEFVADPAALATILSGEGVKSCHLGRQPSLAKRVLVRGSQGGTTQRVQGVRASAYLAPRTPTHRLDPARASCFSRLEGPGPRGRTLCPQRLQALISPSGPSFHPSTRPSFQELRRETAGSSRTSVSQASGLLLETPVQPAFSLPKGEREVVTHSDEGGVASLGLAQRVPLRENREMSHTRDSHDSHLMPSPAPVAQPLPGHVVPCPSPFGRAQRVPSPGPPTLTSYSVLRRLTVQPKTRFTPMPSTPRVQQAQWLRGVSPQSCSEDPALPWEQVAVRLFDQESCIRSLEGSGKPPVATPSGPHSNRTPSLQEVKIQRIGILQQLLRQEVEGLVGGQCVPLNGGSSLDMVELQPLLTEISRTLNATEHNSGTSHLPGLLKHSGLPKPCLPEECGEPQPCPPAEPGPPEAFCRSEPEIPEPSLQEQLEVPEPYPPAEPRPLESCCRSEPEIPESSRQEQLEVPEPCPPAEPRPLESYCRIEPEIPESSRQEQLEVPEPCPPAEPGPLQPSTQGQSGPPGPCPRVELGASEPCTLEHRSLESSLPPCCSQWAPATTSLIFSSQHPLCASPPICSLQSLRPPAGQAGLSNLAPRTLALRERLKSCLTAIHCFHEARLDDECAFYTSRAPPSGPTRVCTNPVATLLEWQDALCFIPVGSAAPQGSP
Assay: GST pull-down of in vitro translated [^35S]-protein on glutathione beads, autoradiography (FIG. 7A)
Method: In vitro translated [³⁵S]-labeled trophinin, bystin or tastin was incubated with GST or GST-ErbB4 immobilized on glutathione beads. Bead-bound materials were visualized by autoradiography after gel electrophoresis. […] Bead-bound materials were visualized by autoradiography. Note that trophinin is captured by GSTErbB4 when bystin is present. […] HT-H cells treated with or without GWRQ peptide were subjected to immunoprecipitation with antiErbB4 antibody, followed by western blot analysis. Note that trophinin and bystin were co-immunoprecipitated with ErbB4 from cells not treated with GWRQ, whereas less trophinin was present in precipitates from GWRQ-treated cells.
A GST-fusion protein pull-down assay was carried out as described (Swaffield, J C, et al. 1996). Trophinin, bystin, and tastin proteins were produced as [³⁵S]-methionine labeled proteins using an vitro transcription and translation kit (TnT, Promega), according to the manufacturer's protocol. [³⁵S]-trophinin, [³⁵S]-bystin, and [³⁵S]-tastin were mixed individually with GSTErbB4 immobilized on glutathione beads in binding buffer (Swaffield, J C, et al. 1996) at 4° C. for 1 hour. After washing unbound materials with binding buffer, bead-bound material was eluted by boiling in SDS sample buffer. [³⁵S]-labeled proteins eluted were analyzed by SDS-PAGE followed by fluorography.

binding result: no binding
B1: GST-ErbB4 fusion protein (cytoplasmic domain of human ErbB4) (other, UniProt Q15303 676-1308, looked up)
chain: RRKSIKKKRALRRFLETELVEPLTPSGTAPNQAQLRILKETELKRVKVLGSGAFGTVYKGIWVPEGETVKIPVAIKILNETTGPKANVEFMDEALIMASMDHPHLVRLLGVCLSPTIQLVTQLMPHGCLLEYVHEHKDNIGSQLLLNWCVQIAKGMMYLEERRLVHRDLAARNVLVKSPNHVKITDFGLARLLEGDEKEYNADGGKMPIKWMALECIHYRKFTHQSDVWSYGVTIWELMTFGGKPYDGIPTREIPDLLEKGERLPQPPICTIDVYMVMVKCWMIDADSRPKFKELAAEFSRMARDPQRYLVIQGDDRMKLPSPNDSKFFQNLLDEEDLEDMMDAEEYLVPQAFNIPPPIYTSRARIDSNRSEIGHSPPPAYTPMSGNQFVYRDGGFAAEQGVSVPYRAPTSTIPEAPVAQGATAEIFDDSCCNGTLRKPVAPHVQEDSSTQRYSADPTVFAPERSPRGELDEEGYMTPMRDKPKQEYLNPVEENPFVSRRKNGDLQALDNPEYHNASNGPPKAEDEYVNEPLYLNTFANTLGKAEYLKNNILSMPEKAKKAFDNPDYWNHSLPPRSTLQHPDYLQEYSTKYFYKQNGRIRPIVAENPEYLSEFSLKPGTVLPPPPYRHRNTVV
notes: domain: cytoplasmic domain; Expressed in bacteria, immobilized on glutathione beads; Linker between GST and ErbB4 not described; not shown: glutathione S-transferase encoded by the vector pGEX-KG
